# The MegaScale stability set (Tsuboyama et al. 2023)
# B1: EHEE_rd4_0726 (parent)
# chain: DIEITTNGEEDAKRVIKELQKRNLEYHIEVHGNQWVIKVR
# Variants of: B1
# Assay: folding stability dG (cDNA display proteolysis); higher = more stable
# Details: PBS, room temperature
row,Variant,folding stability dG [kcal/mol]
1,DIEITTNGEEDAKRVIKELQKRNLEYHIEIHGNQWVIKVR [V30I],2.72
2,DIEITTNGEEDAKRVIKELQKRNLEYHIEMHGNQWVIKVR [V30M],2.01
3,DIEITTNGEEDAKRVIKELQKRNLEYHIECHGNQWVIKVR [V30C],2.23
4,DIEITTNGEEDAKRVIKELQKRNLEYHIEWHGNQWVIKVR [V30W],1.81
5,DIEITTNGEEDAKRVIKELQKRNLEYHIEDHGNQWVIKVR [V30D],0.526
6,DIEITTNGEEDAKRVIKELQKRNLEYHIEHHGNQWVIKVR [V30H],1.94
7,DIEITTNGEEDAKRVIKELQKRNLEYHIELHGNQWVIKVR [V30L],1.86
8,DIEITTNGEEDAKRVIKELQKRNLEYHIEKHGNQWVIKVR [V30K],2.36
9,DIEITTNGEEDAKRVIKELQKRNLEYHIESHGNQWVIKVR [V30S],1.32
10,DIEITTNGEEDAKRVIKELQKRNLEYHIEQHGNQWVIKVR [V30Q],2.14
11,DIEITTNGEEDAKRVIKELQKRNLEYHIEPHGNQWVIKVR [V30P],0.866
12,DIEITTNGEEDAKRVIKELQKRNLEYHIEGHGNQWVIKVR [V30G],0.63
13,DIEITTNGEEDAKRVIKELQKRNLEYHIEAHGNQWVIKVR [V30A],1.41
14,DIEITTNGEEDAKRVIKELQKRNLEYHIENHGNQWVIKVR [V30N],1.57
15,DIEITTNGEEDAKRVIKELQKRNLEYHIEFHGNQWVIKVR [V30F],2.06
16,DIEITTNGEEDAKRVIKELQKRNLEYHIETHGNQWVIKVR [V30T],1.71
17,DIEITTNGEEDAKRVIKELQKRNLEYHIEYHGNQWVIKVR [V30Y],2.12
18,DIEITTNGEEDAKRVIKELQKRNLEYHIEEHGNQWVIKVR [V30E],1.16
19,DIEITTNGEEDAKRVIKELQKRNLEYHIERHGNQWVIKVR [V30R],2.43
20,DIEITTNGEEDAKRVIKELQKRNLEYHIEVHNNQWVIKVR [G32N],1.94
21,DIEITTNGEEDAKRVIKELQKRNLEYHIEVHSNQWVIKVR [G32S],1.21

row,Variant,folding stability dG [kcal/mol]
1,DIEITTNGEEDAKRVIKELQKRNLEYHIEVHANQWVIKVR [G32A],1.44
2,DIEITTNGEEDAKRVIKELQKRNLEYHIEVHPNQWVIKVR [G32P],1
3,DIEITTNGEEDAKRVIKELQKRNLEYHIEVHTNQWVIKVR [G32T],1
4,DIEITTNGEEDAKRVIKELQKRNLEYHIEVHINQWVIKVR [G32I],1.21
5,DIEITTNGEEDAKRVIKELQKRNLEYHIEVHFNQWVIKVR [G32F],1.51
6,DIEITTNGEEDAKRVIKELQKRNLEYHIEVHYNQWVIKVR [G32Y],1.19
7,DIEITTNGEEDAKRVIKELQKRNLEYHIEVHKNQWVIKVR [G32K],1.35
8,DIEITTNGEEDAKRVIKELQKRNLEYHIEVHLNQWVIKVR [G32L],1.38
9,DIEITTNGEEDAKRVIKELQKRNLEYHIEVHDNQWVIKVR [G32D],1.85
10,DIEITTNGEEDAKRVIKELQKRNLEYHIEVHWNQWVIKVR [G32W],0.99
11,DIEITTNGEEDAKRVIKELQKRNLEYHIEVHQNQWVIKVR [G32Q],1.59
12,DIEITTNGEEDAKRVIKELQKRNLEYHIEVHRNQWVIKVR [G32R],1.09
13,DIEITTNGEEDAKRVIKELQKRNLEYHIEVHVNQWVIKVR [G32V],1.08
14,DIEITTNGEEDAKRVIKELQKRNLEYHIEVHHNQWVIKVR [G32H],1.39
15,DIEITTNGEEDAKRVIKELQKRNLEYHIEVHENQWVIKVR [G32E],1.9
16,DIEITTNGEEDAKRVIKELQKRNLEYHIEVHMNQWVIKVR [G32M],1.43
17,DIEITTNGEEDAKRVIKELQKRNLEYHIEVHGNRWVIKVR [Q34R],2.59
18,DIEITTNGEEDAKRVIKELQKRNLEYHIEVHGNFWVIKVR [Q34F],2.65
19,DIEITTNGEEDAKRVIKELQKRNLEYHIEVHGNMWVIKVR [Q34M],2.6
20,DIEITTNGEEDAKRVIKELQKRNLEYHIEVHGNGWVIKVR [Q34G],1.42
21,DIEITTNGEEDAKRVIKELQKRNLEYHIEVHGNSWVIKVR [Q34S],2.1

row,Variant,folding stability dG [kcal/mol]
1,DIEITTNGEEDAKRVIKELQKRNLEYHIEVHGNAWVIKVR [Q34A],1.92
2,DIEITTNGEEDAKRVIKELQKRNLEYHIEVHGNLWVIKVR [Q34L],2.65
3,DIEITTNGEEDAKRVIKELQKRNLEYHIEVHGNYWVIKVR [Q34Y],2.5
4,DIEITTNGEEDAKRVIKELQKRNLEYHIEVHGNTWVIKVR [Q34T],2.58
5,DIEITTNGEEDAKRVIKELQKRNLEYHIEVHGNWWVIKVR [Q34W],2.32
6,DIEITTNGEEDAKRVIKELQKRNLEYHIEVHGNNWVIKVR [Q34N],2.21
7,DIEITTNGEEDAKRVIKELQKRNLEYHIEVHGNIWVIKVR [Q34I],2.87
8,DIEITTNGEEDAKRVIKELQKRNLEYHIEVHGNKWVIKVR [Q34K],2.56
9,DIEITTNGEEDAKRVIKELQKRNLEYHIEVHGNHWVIKVR [Q34H],2.36
10,DIEITTNGEEDAKRVIKELQKRNLEYHIEVHGNEWVIKVR [Q34E],1.85
11,DIEITTNGEEDAKRVIKELQKRNLEYHIEVHGNPWVIKVR [Q34P],-0.908
12,DIEITTNGEEDAKRVIKELQKRNLEYHIEVHGNDWVIKVR [Q34D],1.68
13,DIEITTNGEEDAKRVIKELQKRNLEYHIEVHGNVWVIKVR [Q34V],2.72
14,DIEITTNGEEDAKRVIKELQKRNLEYHIWVHGNQWVIKVR [E29W],1.82
15,DIEITTNGEEDAKRVIKELQKRNLEYHIYVHGNQWVIKVR [E29Y],2.26
16,DIEITTNGEEDAKRVIKELQKRNLEYHITVHGNQWVIKVR [E29T],2.33
17,DIEITTNGEEDAKRVIKELQKRNLEYHIVVHGNQWVIKVR [E29V],2.3
18,DIEITTNGEEDAKRVIKELQKRNLEYHIEVHGYQWVIKVR [N33Y],1.98
19,DIEITTNGEEDAKRVIKELQKRNLEYHIEVHGCQWVIKVR [N33C],1.96
20,DIEITTNGEEDAKRVIKELQKRNLEYHIEVHGPQWVIKVR [N33P],1.78
